In patent US20210186964:

Molecular target: Ub-AMC (ubiquitin-AMC), P0CG47
Sequence (P0CG47 whole entry, looked up): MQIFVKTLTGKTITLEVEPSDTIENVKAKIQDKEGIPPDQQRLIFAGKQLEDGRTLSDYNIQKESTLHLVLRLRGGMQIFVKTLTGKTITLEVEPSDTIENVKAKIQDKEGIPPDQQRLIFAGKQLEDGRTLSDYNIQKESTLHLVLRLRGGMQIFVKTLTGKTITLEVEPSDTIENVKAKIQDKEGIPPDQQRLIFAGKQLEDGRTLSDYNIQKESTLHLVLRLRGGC

B1: USP1/UAF1 complex (WT-USP1/UAF1) (protein)
chain 1: MPGVIPSESNGLSRGSPSKKNRLSLKFFQKKETKRALDFTDSQENEEKASEYRASEIDQVVPAAQSSPINCEKRENLLPFVGLNNLGNTCYLNSILQVLYFCPGFKSGVKHLFNIISRKKEALKDEANQKDKGNCKEDSLASYELICSLQSLIISVEQLQASFLLNPEKYTDELATQPRRLLNTLRELNPMYEGYLQHDAQEVLQCILGNIQETCQLLKKEEVKNVAELPTKVEEIPHPKEEMNGINSIEMDSMRHSEDFKEKLPKGNGKRKSDTEFGNMKKKVKLSKEHQSLEENQRQTRSKRKATSDTLESPPKIIPKYISENESPRPSQKKSRVKINWLKSATKQPSILSKFCSLGKITTNQGVKGQSKENECDPEEDLGKCESDNTTNGCGLESPGNTVTPVNVNEVKPINKGEEQIGFELVEKLFQGQLVLRTRCLECESLTERREDFQDISVPVQEDELSKVEESSEISPEPKTEMKTLRWAISQFASVERIVGEDKYFCENCHHYTEAERSLLFDKMPEVITIHLKCFAASGLEFDCYGGGLSKINTPLLTPLKLSLEEWSTKPTNDSYGLFAVVMHSGITISSGHYTASVKVTDLNSLELDKGNFVVDQMCEIGKPEPLNEEEARGVVENYNDEEVSIRVGGNTQPSKVLNKKNVEAIGLLGGQKSKADYELYNKASNPDKVASTAFAENRNSETSDTTGTHESDRNKESSDQTGINISGFENKISYVVQSLKEYEGKWLLFDDSEVKVTEEKDFLNSLSPS
chain 2: not shown
Km (Ub-AMC deubiquitination assay, USP1/UAF1 complex alone, no DNA): decreasing the Km from 0.79 µM to 0.33 µM | Km (Ub-AMC deubiquitination assay, USP1/UAF1 complex with fork DNA): decreasing the Km from 0.79 µM to 0.33 µM
